In patent US20210318312:

Sequence of recombinant SIRT5 (Sigma, cat. #SRP0119-100UG) (chain, as listed by the source): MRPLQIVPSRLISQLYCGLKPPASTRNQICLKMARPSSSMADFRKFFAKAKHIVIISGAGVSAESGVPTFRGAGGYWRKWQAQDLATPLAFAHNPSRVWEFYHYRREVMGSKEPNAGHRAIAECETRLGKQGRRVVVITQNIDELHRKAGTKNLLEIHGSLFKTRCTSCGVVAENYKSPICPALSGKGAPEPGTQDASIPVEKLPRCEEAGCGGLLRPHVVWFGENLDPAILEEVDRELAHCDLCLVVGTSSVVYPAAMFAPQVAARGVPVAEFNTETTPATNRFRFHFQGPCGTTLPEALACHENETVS

recombinant SIRT5 (Sigma, cat. #SRP0119-100UG)
in vitro deacylation kinetics (DLAT K259 Acetyl peptide): low, but detectable activity was measured for DLAT acetyl
in vitro deacylation kinetics (DLAT K259 Lipoyl peptide): no activity was detected for DLAT lipoyl (SEQ ID NO: 8) reactions
